Reference: paper PMC10326071

Tests used:
[1] = molecular target: middle domain of human Paip1 (Paip1M, residues 78-296) (human) (UniProt Q9H074); test: BLI; […]; association 30 s, dissociation 80 s; 25 C; global fit, 1:1 model
[2] = molecular target: middle domain of human poly(A)-binding protein-interacting protein 1 (Paip1M, residues 78-296) (human) (UniProt Q9H074); test: BLI; […]; 1×PBS pH 7.4, 0.1% surfactant P20, 0.1% BSA, 500 mM NaCl; 25 °C; global fit, 1:1 model
SARS-CoV-2 SUD-core [3] = molecular target: T1, SARS-CoV-2 SUD-core (SARS-CoV-2, UniProt P0DTD1 1231-1494); test: EMSA; no compound; conditions: protein: recombinant; tags: N-terminal 6xHis; label: none stated; SYBR-Gold stain; G4 (predicted)
SARS-CoV SUD-core = SARS-CoV SUD-core (SARS-CoV, UniProt P0C6X7 1207-1470); test: BLI; conditions: protein: recombinant; tags: N-terminal 6xHis; G4
SARS-CoV-2 SUD-core [4] = molecular target: T1, SARS-CoV-2 SUD-core; test: BLI; conditions: protein: recombinant; tags: N-terminal 6xHis; G4
SARS-CoV-2 SUD-core [5] = molecular target: T1, SARS-CoV-2 SUD-core; test: BLI; Fig. 2C titration; conditions: protein: recombinant; tags: N-terminal 6xHis; G4

Chain of middle domain of human Paip1 (Paip1M, residues 78-296) (human) (Q9H074 157-375): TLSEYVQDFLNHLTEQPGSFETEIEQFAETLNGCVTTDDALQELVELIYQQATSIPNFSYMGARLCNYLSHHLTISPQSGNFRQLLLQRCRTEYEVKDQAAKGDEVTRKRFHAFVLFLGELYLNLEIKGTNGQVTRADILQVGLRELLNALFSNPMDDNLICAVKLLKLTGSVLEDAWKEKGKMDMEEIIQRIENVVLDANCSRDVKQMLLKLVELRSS
Chain of middle domain of human poly(A)-binding protein-interacting protein 1 (Paip1M, residues 78-296) (human) (Q9H074 157-375): as above

Molecule: SARS-CoV-2 SUD-core (nsp3 residues 413-676) (domain or fragment)
- koff [1]: 0.0055 s⁻¹

Molecule: SARS-CoV SUD-core (nsp3 389-652) (domain or fragment)
- koff [1]: 0.0066 s⁻¹
- Kd [2]: 4400 nM

B1: G4-24268 (EMSA) (structured_RNA)
RNA: GGCUUAUAGGUUUAAUGGUAUUGG
- binding result (SARS-CoV-2 SUD-core [3]): binds

B2: G4-TRF2 (BLI) (structured_RNA)
RNA: CGGGAGGGCGGGGAGGGC
- Kd (SARS-CoV SUD-core): 17 nM
- Kd (SARS-CoV-2 SUD-core [4]): 35.8 nM
- Kd (SARS-CoV-2 SUD-core [5]): 170 nM
